# T1: human CD39 mutant 19 (human, UniProt P49961 1-510)
# T1 construct: Expressed on Hek-293T cells; also called M19
# T1 chain: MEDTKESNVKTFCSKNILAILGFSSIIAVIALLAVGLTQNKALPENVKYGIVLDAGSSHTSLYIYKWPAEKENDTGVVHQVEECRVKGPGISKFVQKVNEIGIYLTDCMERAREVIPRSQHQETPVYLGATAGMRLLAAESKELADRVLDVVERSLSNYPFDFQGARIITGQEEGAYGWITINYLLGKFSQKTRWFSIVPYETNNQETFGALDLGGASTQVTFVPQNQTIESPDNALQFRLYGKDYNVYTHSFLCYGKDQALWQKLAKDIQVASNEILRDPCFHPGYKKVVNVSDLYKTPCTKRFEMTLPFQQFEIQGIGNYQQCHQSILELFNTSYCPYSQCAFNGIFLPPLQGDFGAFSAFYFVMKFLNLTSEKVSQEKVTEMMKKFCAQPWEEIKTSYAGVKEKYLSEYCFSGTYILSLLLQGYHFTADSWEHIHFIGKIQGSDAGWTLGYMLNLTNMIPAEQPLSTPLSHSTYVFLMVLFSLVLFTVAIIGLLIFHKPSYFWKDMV
# T2: human CD39 (vascular CD39, NTPDase1) expressed at the surface of cells (human, UniProt P49961 1-510)
# T2 construct: also called huCD39; CHO-huCD39
# T2 sequence: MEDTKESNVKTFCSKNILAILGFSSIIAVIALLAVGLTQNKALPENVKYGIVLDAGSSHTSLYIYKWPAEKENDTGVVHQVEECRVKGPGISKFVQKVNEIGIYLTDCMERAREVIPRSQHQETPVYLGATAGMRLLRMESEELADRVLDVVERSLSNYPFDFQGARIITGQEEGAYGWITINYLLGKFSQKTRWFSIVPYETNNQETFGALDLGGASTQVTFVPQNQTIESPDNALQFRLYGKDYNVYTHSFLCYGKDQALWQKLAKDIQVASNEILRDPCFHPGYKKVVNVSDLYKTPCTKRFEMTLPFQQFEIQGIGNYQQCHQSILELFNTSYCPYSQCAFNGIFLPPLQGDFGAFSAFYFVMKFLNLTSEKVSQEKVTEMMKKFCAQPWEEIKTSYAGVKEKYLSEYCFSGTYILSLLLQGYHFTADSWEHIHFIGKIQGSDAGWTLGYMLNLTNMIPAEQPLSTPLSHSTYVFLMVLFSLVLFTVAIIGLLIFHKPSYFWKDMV
# T3: recombinant human CD39-L4 (NTPDase5, ENTPD5) (human, UniProt O75356 25-428)
# T3 construct: Genbank NP_001240 (precursor) is printed
# T3 sequence: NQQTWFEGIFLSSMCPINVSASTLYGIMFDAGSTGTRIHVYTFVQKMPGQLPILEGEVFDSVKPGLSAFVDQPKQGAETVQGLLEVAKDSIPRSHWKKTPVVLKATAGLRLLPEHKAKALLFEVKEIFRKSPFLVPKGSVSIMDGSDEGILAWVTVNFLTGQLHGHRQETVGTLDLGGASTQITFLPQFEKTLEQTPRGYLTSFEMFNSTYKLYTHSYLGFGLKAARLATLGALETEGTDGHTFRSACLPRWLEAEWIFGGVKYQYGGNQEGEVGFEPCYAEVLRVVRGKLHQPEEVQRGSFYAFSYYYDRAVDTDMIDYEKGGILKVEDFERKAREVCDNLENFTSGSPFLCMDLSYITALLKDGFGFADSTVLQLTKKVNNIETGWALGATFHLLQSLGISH
# What was measured:
# human CD39 mutant 19 [1] = biological target: T1, human CD39 mutant 19; assay: flow cytometry on Hek-293T cells expressing CD39 mutant 19 (panel M19)
# Method: (§1) Mutants were transfected in Hek-293T cells, as shown in the table 1, using numbering of SEQ ID NO: 1. […] Mutant 19 includes substitutions at residues R138, M139 and E142.
# (§2) In order to define the epitopes of the further anti-CD39 antibodies of Example 5, they were tested for loss of binding to the panel of CD39 mutants as described in Example 1 and Table 1. Mutants were transfected in Hek-293T cells, as shown in the table 1, using numbering of SEQ ID NO: 1.Dose-ranges of test antibodies (10-2.5-0.625-0.1563-0.0391-0.0098-0.0024-0.0006 μg/ml) are tested on the 20 generated mutants by flow cytometry.
# [2] = biological target: T2, human CD39 (vascular CD39, NTPDase1) …; assay: flow cytometry on Ramos lymphoma cells, second set of experiments
# Method: Cells were incubated with various concentration of unlabeled anti-CD39 antibody from 30 μg/ml to 5×10-⁴ μg/ml, for 30 minutes at 4° C. After washes, cells were incubated with Goat anti-mouse H+L labeled secondary antibody for 30 min at 4° C.
# [3] = biological target: T3, recombinant human CD39-L4 (NTPDase5, …); assay: ELISA on plate-coated recombinant huCD39 L4; the single curve has no legend on the sheet, I-394 by the legend paragraph 70
# Method: Wells were washed in TBS Tween 20, and further saturated 2H at RT in TBS Blocking buffer. Dose range concentration of primary antibody was incubated in TBS blocking buffer for 2 h at RT. Wells were washed in TBS Tween 20. […] Optical density was measured on Enspire™ at OD=450.
# human CD39 mutant 19 [4] = biological target: T1, human CD39 mutant 19; assay: flow cytometry on Hek-293T cells expressing CD39 mutant 19 (panel M19); unstained (US) median 8,98; antibody concentration not shown
# Method: as §1, §2
binder,measurement,setting,value
"antibody I-394 (antibody, V domains shown, Mouse variable regions; Produced in CHO with human IgG1 constant domains carrying L234A/L235E/G237A/A330S/P331S (Kabat EU numbering) and a human Ck constant domain) VH: EVQLQQSGPELVKPGASVKMSCKASGYTFTDYNMHWVKQSHGRTLEWIGYIVPLNGGSTFNQKFKGRATLTVNTSSRTAYMELRSLTSEDSAAYYCARGGTRFAYWGQGTLVTVSA VL: not shown",binding result,human CD39 mutant 19 [1],no binding
same,EC50,[2],0.19 µg/mL
same,binding result,[3],no binding (tested: about 50 µg/ml)
same,Median : Comp-Alexa Fluor 647-A,human CD39 mutant 19 [4],24.4
